Experimental data taken from PMC8409985.

Molecular target: truncated human ACE2 ectodomain (residues 19–613) with C-terminal AVI-tag and 6xHis-tag, biotinylated (human) (UniProt Q9BYF1)
Experiment: BLI

SARS-CoV-2 RBD variant S477N (from UniProt P0DTC2 319-541) (domain or fragment)
t1/2: 2.68 min
